# Patent publication US7387779B2, “Anti-angiogenic proteins and fragments and methods of use thereof” (Beth Israel Deaconess Medical Center, priority 1998, dated 2008)
# Assays:
# [1] = target: T1, human αvβ3 protein (Homo sapiens, UniProt P05106+P06756); test: Competition proliferation assay with soluble αvβ3 protein, C-PAE cells; format: cell-based, bovine
# T1 construct: purchased CHEMICON Int'l, Temecula, Calif., USA
# Method: C-PAE cells were plated into 96-well plates as described above for the endothelial cell proliferation assay. Tumstatin at a final concentration of 0.1 μg/ml was incubated with varying concentrations (0, 0.008, 0.08, 0.8, 1.6 and 2.4 μg/ml) of human αvβ3 protein (CHEMICON Int'l, Temecula, Calif., USA) for 30 minutes at room temperature. This mixture was then added into the wells, and incubated for 48 hours. The proliferation assay was then performed using the methylene blue staining method, as described above for the endothelial cell proliferation assay.
# The integrin αvβ3 was then investigated for its ability to reverse the anti-proliferative effects of Tumstatin and Tum-2. Tumstatin and Tum-2 were incubated with αvβ3 protein for 30 minutes, and added to C-PAE cells which were plated in 96-well plates and incubated overnight with growth media. After incubation for 48 hours, the cell number was determined by methylene blue staining.
# Integrin αvβ3 was investigate for its ability to reverse the anti-proliferative affects of peptide T3. T3 peptide was incubated with 0, 0.001, 0.01, 0.1, 0.5, or 1.0 μg/ml αvβ3 integrin protein (CHEMICON Int'l, Temecula, Calif., USA) for 30 minutes at room temperature, and was then added, at 20 μg/ml final concentration, to C-PAE cells that had been grown in 96-well plates in growth media. After 48 hours of additional incubation, cell number was determined by the methylene blue assay. The results are shown in FIG. 43C, which is a histogram showing the growth of C-PAE cells (y-axis) when treated with T3 peptide that had been pre-incubated with varying concentrations (x-axis) of αvβ3 integrin.
# Soluble αvβ3 integrin protein reversed the anti-proliferative effects of Tumstatin-44-131. This was shown by a competition proliferation assay as described above in Example 26. […] E. Coli-expressed Tumstatin-44-131 was then incubated with αvβ3 integrin protein for 30 minutes, and then added to C-PAE cells with 20% FCS. After 48 hours, cell proliferation was determined by methylene blue staining. The anti-proliferative affect of Tumstatin-44-131 was reversed dose-dependently with increasing concentrations of αvβ3 soluble protein.
# [2] = tested on: C-PAE cells; test: Cell attachment assay; format: cell-based, bovine
# Method: The attachment of HUVECs to Tumstatin-coated plates in the presence of integrin subunits α1 through α6, β1, and αvβ3 integrin blocking antibody was examined. This assay was performed according to the method of Senger et al. (Senger, D. R. et al, 1997, Proc. Natl. Acad. Sci. USA 94:13612-7), with minor modification. 96-well plates were coated with either human Tumstatin, mouse laminin-1, or human Type IV collagen (Collaborative Biomedical Prods., Bedford, Mass., USA) at a concentration of 10 μg/ml overnight at 37° C. Vitronectin (Collaborative Biomed. Prods.) at a concentration of 0.5 μg/ml was then used to coat the plates. The remaining protein binding sites were blocked with 100 mg/ml of BSA (Sigma Chemical Co., St. Louis, Mo., USA) in PBS for 2 hours. HUVEC cells were grown to subconfluence (70-80%) in EGM-2 medium, gently trypsinized and resuspended in serum-free medium (1.5×10^5 cells/ml). The cells were mixed with 10 μg/ml of either mouse IgG, (control) (Life Technologies/Gibco BRL, Gaithersberg, Md., USA) or antibody (mouse monoclonal antibody to the human β1 integrin (clone P4C10) (Life Technologies/Gibco BRL); monoclonal antibody to human integrins α1 through α.6 (CHEMICON Int'l, Temecula, Calif., USA); αvβ3 integrin (clone LM609) (CHEMICON Int'l) and incubated for 15 minutes at room temperature, with gentle agitation. One hundred microliters of the cell suspension was then added to each well and incubated for 45 minutes at 37° C. Unattached cells were removed by washing, and the number of attached cells were counted after staining with methylene blue. C-PAE cells were used in separate experiments, following the above procedure.
# To determine the attachment of C-PAE cells to plates coated with the Tumstatin deletion mutants, the cell attachment assay was performed as described above (see, e.g., Example 28). Rabbit antibody raised against Tum-4 was prepared as previously described (Kalluri et al., 1997, J. Clin. Invest. 99:2470-8). Goat anti-rabbit IgG antibody conjugated with horseradish peroxidase was purchased from Sigma Chemical Company (St. Louis, Mo., USA). […] Plates coated with Tum-1 (FIG. 36A) were also treated with anti-Tum-4 antibody (1:200 dilution) to block the previously reported (Shahan et al, 1999, Cancer Res. 59:4584-90) αvβ3 binding site, as well as the αvβ5 binding site.
# Cell Attachment Activity: Cell attachment using endothelial cells was performed as described above. HUVEC or C-PAE cells were incubated with monoclonal anti-human integrin antibodies, control mouse IgG (10 μg/ml), or synthetic peptide, plated onto pre-coated 96-well plates, and the number of cells attaching to the plates was determined using measurement of methylene blue staining at OD655. […] CNGRC peptide was used as a control.
# The cell attachment assay was performed as described above.
# Tumstatin produced in 293 human embryonic kidney cells was used to coat tissue culture plates. […] PBS and BSA served as positive and negative controls, respectively.
# [3] = tested on: Goodpasture autoantibody; test: Reactivity with Goodpasture autoantibody (western blotting); format: binding, human
# Excerpt: Goodpasture syndrome is an autoimmune disease characterized by pulmonary hemorrhage and/or rapidly progressing glomerulonephritis, which are caused by the disruption of glomerular and alveolar basement membranes through immune injury associated with autoantibody activity against α3(IV) NC1. Recently, the most probable disease-related pathogenic epitope was identified in the N-terminal portion (Kalluri, R. et al., 1996, J. Biol. Chem. 271:9062-8; Hellmark, T. et al., 1999, Kidney Int. 55:938-44), and was then further confined within the N-terminal 40 amino acids (Hellmark, T. et al., 1999, J. Biol. Chem. 274:25862-8; Netzer, K. O. et al., 1999, J. Biol. Chem. 274:11267-74). The N-terminal Tumstatin-44-131 consists of residues 44-131 of Tumstatin, which is outside of the Goodpasture autoepitope. To further confirm that Tumstatin-44-131 would not be detected by Goodpasture autoantibody, antisera from patients with Goodpasture was used for western blotting.
# [4] = tested on: WM-164 cells; test: Attachment of melanoma cells to coated plates; format: cell-based, human
# Excerpt: Tumstatin and all three of the deletion mutants […] attachment of WM-164 melanoma cells to the plates.
# [5] = tested on: PC-3 tumors; conditions: for tumor volume on day 10: 20 mg/kg i.p. daily for 10 days, control 202.8±50.0
# Method: In a second PC-3 experiment, PC-3 cells were harvested from culture and 3 million cells were injected into 6- to 7-week-old athymic nude mice, and tumors were allowed to grow subcutaneously for approximately 2 weeks after which the animals were divided into groups of four mice. Experimental groups (4 mice) were injected daily I.P. with Canstatin at a dosage of 3 mg/kg in a total volume of 0.2 ml of PBS or endostatin at a dosage of 8 mg/kg in the same volume of PBS. The control group (4 mice) received equal volumes of PBS each day. Tumor length and width were measured using a Vernier caliper and the tumor volume was calculated using the standard formula: length×width^2×0.52. Tumor volumes ranged from 26 mm^3 to 73 mm^3, and the calculated tumor volume on a given day was divided by the volume on treatment day 0 to produce a fractional tumor volume (V/V0), as described above.
# T1 sequence (P06756 31-889 limits assumed): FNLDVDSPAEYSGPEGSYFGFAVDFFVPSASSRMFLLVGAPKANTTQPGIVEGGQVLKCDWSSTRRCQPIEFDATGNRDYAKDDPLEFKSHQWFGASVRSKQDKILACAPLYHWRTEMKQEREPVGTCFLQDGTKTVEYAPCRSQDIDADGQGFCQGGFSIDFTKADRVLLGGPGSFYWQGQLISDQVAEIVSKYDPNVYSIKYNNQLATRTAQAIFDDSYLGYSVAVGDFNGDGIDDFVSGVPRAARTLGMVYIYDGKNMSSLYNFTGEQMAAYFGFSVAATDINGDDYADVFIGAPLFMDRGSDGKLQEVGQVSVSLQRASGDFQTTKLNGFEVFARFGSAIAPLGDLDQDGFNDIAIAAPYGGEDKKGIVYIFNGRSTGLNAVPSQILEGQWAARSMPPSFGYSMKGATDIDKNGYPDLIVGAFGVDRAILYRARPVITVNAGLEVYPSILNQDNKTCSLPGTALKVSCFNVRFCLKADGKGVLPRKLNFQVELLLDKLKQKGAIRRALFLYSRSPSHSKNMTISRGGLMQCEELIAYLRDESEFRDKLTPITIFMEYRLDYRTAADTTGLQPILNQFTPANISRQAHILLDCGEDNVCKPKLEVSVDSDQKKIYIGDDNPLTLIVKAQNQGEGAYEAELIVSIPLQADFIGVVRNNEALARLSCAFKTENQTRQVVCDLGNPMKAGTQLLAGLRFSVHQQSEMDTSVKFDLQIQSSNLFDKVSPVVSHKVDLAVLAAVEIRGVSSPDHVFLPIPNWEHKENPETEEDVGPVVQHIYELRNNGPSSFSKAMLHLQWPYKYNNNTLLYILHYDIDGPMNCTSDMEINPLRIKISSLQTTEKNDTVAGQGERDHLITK
# T1 sequence (P06756 891-1048 partner limits assumed): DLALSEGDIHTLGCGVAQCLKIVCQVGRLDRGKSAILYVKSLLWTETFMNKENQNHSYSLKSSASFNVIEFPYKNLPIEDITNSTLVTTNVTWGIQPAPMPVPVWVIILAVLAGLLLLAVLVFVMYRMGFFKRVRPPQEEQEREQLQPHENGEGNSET
# T1 sequence (P05106 27-788): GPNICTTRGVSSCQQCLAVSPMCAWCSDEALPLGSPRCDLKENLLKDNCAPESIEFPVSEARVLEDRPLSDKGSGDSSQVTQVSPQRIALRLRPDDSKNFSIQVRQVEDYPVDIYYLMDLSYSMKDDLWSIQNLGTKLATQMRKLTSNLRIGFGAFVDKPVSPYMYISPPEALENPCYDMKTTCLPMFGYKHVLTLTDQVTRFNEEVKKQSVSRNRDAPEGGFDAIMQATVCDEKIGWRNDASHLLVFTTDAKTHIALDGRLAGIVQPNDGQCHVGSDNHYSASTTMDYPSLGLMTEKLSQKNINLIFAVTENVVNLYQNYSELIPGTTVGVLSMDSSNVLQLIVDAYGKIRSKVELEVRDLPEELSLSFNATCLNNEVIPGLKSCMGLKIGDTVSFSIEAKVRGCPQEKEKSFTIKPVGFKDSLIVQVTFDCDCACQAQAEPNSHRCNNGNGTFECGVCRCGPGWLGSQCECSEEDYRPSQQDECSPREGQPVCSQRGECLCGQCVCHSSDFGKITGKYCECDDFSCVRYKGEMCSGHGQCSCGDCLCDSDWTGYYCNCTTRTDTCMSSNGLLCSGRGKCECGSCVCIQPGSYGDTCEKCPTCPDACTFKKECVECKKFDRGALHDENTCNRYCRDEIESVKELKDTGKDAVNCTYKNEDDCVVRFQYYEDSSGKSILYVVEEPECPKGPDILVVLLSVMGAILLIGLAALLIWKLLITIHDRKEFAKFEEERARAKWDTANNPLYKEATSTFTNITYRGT
molecule,measurement,setting,value
LQRFTTMPFLFCNVNDVCNF [T3],anti-proliferative effect after pre-incubation with αvβ3 integrin protein,[1]; peptide 20 μg/ml,significantly decreased
same,attachment to T3-coated plates with anti-αv or anti-β1 integrin antibody,[2],did not inhibit
same,attachment to T3 peptide-coated plates with anti-β3 integrin antibody,[2],inhibited by a preincubation with anti-β3 integrin antibody
same,inhibition of cell attachment to Tum-4-coated plates by peptide,[2],failed to inhibit
same,inhibition of cell attachment onto Tum-5-coated plates by peptide,[2]; 2.5 μg/ml peptide,significantly inhibited
same,inhibition of cell attachment to Tumstatin-coated plates by peptide,"[2]; 10 μg/ml peptide, 293-produced Tumstatin coating",46.4%
same,binding to vitronectin-coated plates (2.5 μg/ml) in the presence of peptide,"[2]; 0.1, 1.0, 10.0 μg/ml peptide",not inhibited
"Tumstatin-44-131: residues 44 to 131 of full-length Tumstatin (SEQ ID NO:33) (protein, Tumstatin-45-132 (amino acids 45-132 of SEQ ID NO10)) FSFLFVQGNQRAHGQDLGTLGSCLQRFTTMPFLFCNVNDVCNFASRNDYSYWLSTPALMPMNMAPITGRALEPYISRCTVCEGPAIAI",detection by antisera / autoantibodies from patients with Goodpasture syndrome,[3],failed to detect
same,reversal of anti-proliferative effect by soluble αvβ3 protein,"[1]; αvβ3 protein at 1 μg/ml, 20% FCS",65.9%
same,attachment to coated plates in the presence of RGD peptide (CDCRGDCFC),[2]; label = plate coating,not inhibited
"Tum-4: residues 181 to 244 of Tumstatin (SEQ ID NO:25) (protein, Tum-4 (amino acids 181-244 of SEQ ID NO10)) EFRASPFLECHGRGTCNYYSNSYSFWLASLNPERMFRKPIPSTVKAGELEKIISRCQVCMKKRH",binding of WM-164 cells to coated plates,[4],bind to WM-164 cells
same,inhibition of attachment of C-PAE cells to coated plates by αvβ3 antibody,[2]; label = plate coating,62.6%
same,inhibition of binding of C-PAE cells to coated plates by αvβ5 antibody,[2]; label = plate coating,not inhibited
"Tumstatin: NC1 domain of the α3 chain of type IV collagen, residues 1-244 (SEQ ID NO:10) (protein, listed as Homo sapiens) GLKGKRGDSGSPATWTTRGFVFTRHSQTTAIPSCPEGTVPLYSGFSFLFVQGNQRAHGQDLGTLGSCLQRFTTMPFLFCNVNDVCNFASRNDYSYWLSTPALMPMNMAPITGRALEPYISRCTVCEGPAIAIAVHSQTTDIPPCPHGWISLWKGFSFIMFTSAGSEGTGQALASPGSCLEEFRASPFLECHGRGTCNYYSNSYSFWLASLNPERMFRKPIPSTVKAGELEKIISRCQVCMKKRH",detection by antisera / autoantibodies from patients with Goodpasture syndrome,[3],detected
same,binding of WM-164 cells to coated plates,[4],bind to WM-164 cells
same,tumor volume on day 10,[5],82.9±25.2 mm^3
same,reversal of anti-proliferative effect by soluble αvβ3 protein,"[1]; αvβ3 at 2.4 μg/ml (3-fold molar excess), Tumstatin 0.1 μg/ml",43.1%
"Canstatin: NC1 domain of the α2 chain of Type IV collagen (SEQ ID NO:6) (protein, listed as Homo sapiens) VSIGYLLVKHSQTDQEPMCPVGMNKLWSGYSLLYFEGQEKAHNQDLGLAGSCLARFSTMPFLYCNPGDVCYYASRNDKSYWLSTTAPLPMMPVAEDEIKPYISRCSVCEAPAIAIAVHSQDVSIPHCPAGWRSLWIGYSFLMHTAAGDEGGGQSLVSPGSCLEDFRATPFIECNGGRGTCHYYANKYSFWLTTIPEQSFQGSPSADTLKAGLIRTHISRCQVCMKNL",tumor suppression compared with endostatin,[5]; 3 mg/kg Canstatin,same suppressive effect as 8 mg/kg of endostatin
same,"treated tumors, fold less than placebo",[5]; athymic (nu/nu) mice,2.4 fold
same,condition of mice during treatment,"[5]; mouse, in vivo",appeared healthy with no signs of wasting
"Tum-1: residues 54 to 244 of Tumstatin, lacking the N-terminal 53 amino acids (SEQ ID NO:22) (protein, Tum-1 (Tumstatin N-53) (amino acids 54-244 of SEQ ID NO10)) QRAHGQDLGTLGSCLQRFTTMPFLFCNVNDVCNFASRNDYSYWLSTPALMPMNMAPITGRALEPYISRCTVCEGPAIAIAVHSQTTDIPPCPHGWISLWKGFSFIMFTSAGSEGTGQALASPGSCLEEFRASPFLECHGRGTCNYYSNSYSFWLASLNPERMFRKPIPSTVKAGELEKIISRCQVCMKKRH",detection by antisera / autoantibodies from patients with Goodpasture syndrome,[3],did not bind autoantibodies
same,binding of WM-164 cells to coated plates,[4],bind to WM-164 cells
same,anti-tumor activity,"[5]; PC3 prostate xenograft model, 5 mg or 20 mg per kilogram",substantial anti-tumor activity
same,inhibition of attachment of C-PAE cells to coated plates by αvβ3 antibody,[2]; label = plate coating,55.9%
same,inhibition of binding of C-PAE cells to coated plates by αvβ5 antibody,[2]; label = plate coating,not inhibited
"Tum-2: residues 1 to 132 of Tumstatin (SEQ ID NO:23) (protein, Tum-2 (amino acids 1-132 of SEQ ID NO10)) GLKGKRGDSGSPATWTTRGFVFTRHSQTTAIPSCPEGTVPLYSGFSFLFVQGNQRAHGQDLGTLGSCLQRFTTMPFLFCNVNDVCNFASRNDYSYWLSTPALMPMNMAPITGRALEPYISRCTVCEGPAIAI",binding of WM-164 cells to coated plates,[4],bind to WM-164 cells
same,recovery of anti-proliferative effect by soluble αvβ3 protein,[1]; 2 g/ml αvβ3 protein (so in the source),74.1%
same,inhibition of attachment of C-PAE cells to coated plates by αvβ3 antibody,[2]; label = plate coating,69.8%
same,inhibition of binding of C-PAE cells to coated plates by αvβ5 antibody,[2]; label = plate coating,not inhibited
"endostatin: tumor associated angiogenesis inhibitor used as comparator (protein, UniProt P39060 1572-1754, looked up, Endostatin) Endostatin: HSHRDFQPVLHLVALNSPLSGGMRGIRGADFQCFQQARAVGLAGTFRAFLSSRLQDLYSIVRRADRAAVPIVNLKDELLFPSWEALFSGSEGPLKPGARIFSFDGKDVLRHPTWPQKSVWHGSDPNGRRLTESYCETWRTEAPSATGQASSLLGGRLLGQSAASCHHAYIVLCIENSFMTASK",tumor suppression,[5]; 5 mg/kg endostatin,not able to suppress tumor growth
same,tumor volume on day 10,[5],68.9±16.7 mm^3
